Assay results reported in patent publication US20040259112A1.

Legend:
[1] = biological target: human vimentin (full length) (human) (UniProt P08670); assay: quantitative FACS (quantum simply cellular beads) on HL60 cells at saturating antibody (40 µg)
[2] = biological target: human vimentin (full length) (human) (UniProt P08670); assay: FACS, indirect immunofluorescence on HL60 cells with 2.5 µg to 40 µg antibody; isotype control subtracted
[3] = biological target: human vimentin (full length) (human) (UniProt P08670); assay: quantitative FACS (quantum simply cellular beads) on MCF-7/AR cells at saturating antibody (50 µg)
[4] = biological target: human vimentin (full length) (human) (UniProt P08670); assay: quantitative FACS (quantum simply cellular beads) on HL60/AR cells at saturating antibody (40 µg)
[5] = biological target: human vimentin (full length) (human) (UniProt P08670); assay: Scatchard analysis, intact cell radioimmunoassay with 125I-labeled antibody on MDA cells
[6] = biological target: human vimentin (full length) (human) (UniProt P08670); assay: Scatchard analysis, intact cell radioimmunoassay with 125I-labeled antibody on MDA/mito cells; average of 5 determinations
[7] = biological target: human vimentin (full length) (human) (UniProt P08670); assay: quantitative FACS (quantum simply cellular beads) on MCF-7 cells at saturating antibody (50 µg)
[8] = biological target: human vimentin (full length) (human) (UniProt P08670); assay: cell-based or functional assay

human vimentin (full length) (human), sequence (P08670 other isoform, or with tags, fused parts or gaps limits assumed): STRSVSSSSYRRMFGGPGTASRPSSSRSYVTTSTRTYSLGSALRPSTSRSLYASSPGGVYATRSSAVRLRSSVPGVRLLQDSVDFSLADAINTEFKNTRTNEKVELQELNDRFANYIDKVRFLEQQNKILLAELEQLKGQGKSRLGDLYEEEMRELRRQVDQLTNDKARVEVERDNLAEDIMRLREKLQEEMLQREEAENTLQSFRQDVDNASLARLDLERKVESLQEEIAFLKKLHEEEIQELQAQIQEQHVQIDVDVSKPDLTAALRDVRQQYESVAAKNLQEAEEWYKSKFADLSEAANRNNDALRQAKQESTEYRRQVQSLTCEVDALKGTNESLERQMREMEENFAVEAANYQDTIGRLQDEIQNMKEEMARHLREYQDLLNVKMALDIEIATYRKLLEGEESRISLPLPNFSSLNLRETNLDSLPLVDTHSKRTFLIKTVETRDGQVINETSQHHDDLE

antibody molecules bound per cell (molecules of vimentin per cell) (molecules per cell) [1]: 186 | fluorescence intensity (RFI) [2]: 0.2 to 0.9 RFI | antibody molecules bound per cell (molecules of vimentin per cell) (molecules per cell) [3]: 22000 | antibody molecules bound per cell (molecules of vimentin per cell) (molecules per cell) [4]: 5050 | Kd [5]: 9.3 nM | Kd [6]: 5.7 nM | antibody molecules bound per cell (molecules of vimentin per cell) (molecules per cell) [7]: 14600 | % internalization of 125I-labeled antibody, MCF-7/AR cells in suspension (difference between 4 and 37° C.) [8]: 38.2% | percent internalization of vimentin, adherent MCF-7/AR cells (difference between 4 and 37° C.) [8]: 11.3% | percent internalization of vimentin, adherent MDA cells (difference between 4 and 37° C.) [8]: 25.3% | percent internalization of vimentin, adherent MDA/AR cells (difference between 4 and 37° C.) [8]: 24.8% | percent internalization of vimentin, adherent MDA/mito cells (difference between 4 and 37° C.) [8]: 8.9%
Substance: mouse monoclonal anti-vimentin antibody (clone V9, NeoMarker MS-129-P)
increase in cytotoxicity of 125I-labeled antibody on HL60/AR against HL60 (MTT based assay) [8]: 10%
